According to patent publication US20220041738A1 (SAITAMA MEDICAL UNIVERSITY, published 2022):

Columns and labels:
Assay in all cases: immunofluorescence on transfected, formalin-fixed C2C12 cells, IgG at 10 µg/mL, Alexa 594 anti-rat IgG
[1] = target: T1, human ALK2-P197_F198delinsL on cells (human, UniProt Q04771 21-509)
T1 construct: also called delP197_F198insL
T1 sequence: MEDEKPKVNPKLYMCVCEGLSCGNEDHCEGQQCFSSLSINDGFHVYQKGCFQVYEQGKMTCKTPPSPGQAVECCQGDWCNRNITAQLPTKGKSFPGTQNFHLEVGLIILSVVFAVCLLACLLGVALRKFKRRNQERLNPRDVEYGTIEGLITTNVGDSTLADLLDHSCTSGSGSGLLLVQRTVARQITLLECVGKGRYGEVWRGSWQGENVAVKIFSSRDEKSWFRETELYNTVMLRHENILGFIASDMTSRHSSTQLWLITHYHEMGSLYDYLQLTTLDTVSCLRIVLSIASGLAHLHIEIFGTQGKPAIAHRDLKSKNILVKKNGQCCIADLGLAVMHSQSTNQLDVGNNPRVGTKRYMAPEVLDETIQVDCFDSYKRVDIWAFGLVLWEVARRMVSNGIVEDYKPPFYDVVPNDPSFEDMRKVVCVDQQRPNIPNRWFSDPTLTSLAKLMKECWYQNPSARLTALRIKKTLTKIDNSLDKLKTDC
Method: (§1) Mouse C2C12 cells were seeded into a 96-well plate (Greiner Bio-One) at 0.5×10³ cells/well, and cultured in 15% FBS-containing DMEM medium overnight under the conditions of 5% CO₂ at 37° C. On the following day, the C2C12 cells were transfected with each of a wild-type human ALK2 cDNA integrated into pcDEF3; pcDEF3/human ALK2-L196P, pcDEF3/human ALK2-P197_F198delinsL, pcDEF3/human ALK2-R202I, pcDEF3/human ALK2-R206H, pcDEF3/human ALK2-Q207E, pcDEF3/human ALK2-R258S, pcDEF3/human ALK2-G325A, pcDEF3/human ALK2-G328E, pcDEF3/human ALK2-G328R, pcDEF3/human ALK2-G328W, pcDEF3/human ALK2-G356D, and pcDEF3/human ALK2-R375P, which are variants identified in FOP; and pcDEF3 as a control, using Lipofectamine 2000 (Invitrogen), and further cultured overnight.
(§2) The C2C12 cells were fixed with 10% neutral formalin (Nacalai Tesque, Japan) for 20 minutes at room temperature, and then blocked with 10% goat normal serum for 30 minutes. After the blocking agent was removed, purified IgG diluted to 10 μg/mL with the blocking agent was added, and the cells were left for 1 hour at room temperature. After the cells were washed with PBS three times, Goat Alexa 594-conjugated anti-rat IgG (Invitrogen) diluted to 1:1000 with the blocking agent was added, and the cells were left for 1 hour at room temperature. After the cells were washed with PBS three times, the cells were fixed with 10% neutral formalin for 15 minutes at room temperature, and nuclear-stained with DAPI (LifeTechnologies). Fluorescent signals were analyzed with a fluorescence microscope BZ-9000 (Keyence).

[2] = target: T2, human ALK2-R202I on cells (human, UniProt Q04771 21-509)
T2 sequence: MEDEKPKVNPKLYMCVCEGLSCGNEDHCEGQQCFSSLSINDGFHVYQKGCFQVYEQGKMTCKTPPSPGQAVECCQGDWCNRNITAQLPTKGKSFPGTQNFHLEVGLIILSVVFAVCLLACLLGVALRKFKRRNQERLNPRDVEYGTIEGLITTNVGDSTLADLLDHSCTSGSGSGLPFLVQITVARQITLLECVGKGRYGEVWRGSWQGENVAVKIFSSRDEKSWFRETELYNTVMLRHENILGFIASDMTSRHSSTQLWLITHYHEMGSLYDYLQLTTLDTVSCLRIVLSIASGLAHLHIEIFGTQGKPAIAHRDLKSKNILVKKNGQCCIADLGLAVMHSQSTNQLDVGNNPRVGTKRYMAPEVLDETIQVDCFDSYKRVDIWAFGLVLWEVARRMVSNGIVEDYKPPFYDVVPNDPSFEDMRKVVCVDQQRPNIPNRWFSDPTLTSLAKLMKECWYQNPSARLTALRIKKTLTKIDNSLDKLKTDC
Method: as §1, §2

[3] = target: T3, human ALK2-R375P on cells (human, UniProt Q04771 21-509)
T3 sequence: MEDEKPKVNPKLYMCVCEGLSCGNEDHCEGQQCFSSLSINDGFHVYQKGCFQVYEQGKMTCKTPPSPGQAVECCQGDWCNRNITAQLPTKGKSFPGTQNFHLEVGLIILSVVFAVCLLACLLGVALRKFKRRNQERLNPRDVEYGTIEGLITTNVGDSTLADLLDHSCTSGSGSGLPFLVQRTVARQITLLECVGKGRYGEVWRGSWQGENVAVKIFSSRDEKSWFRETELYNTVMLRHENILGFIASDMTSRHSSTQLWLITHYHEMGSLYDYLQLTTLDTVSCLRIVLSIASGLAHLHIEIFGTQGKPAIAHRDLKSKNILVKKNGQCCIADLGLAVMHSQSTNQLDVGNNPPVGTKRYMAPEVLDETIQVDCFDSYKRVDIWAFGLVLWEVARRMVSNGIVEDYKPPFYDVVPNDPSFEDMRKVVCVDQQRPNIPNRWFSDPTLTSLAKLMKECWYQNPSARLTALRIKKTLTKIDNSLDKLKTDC
Method: as §1, §2

[4] = target: T4, human ALK2-G328W on cells (human, UniProt Q04771 21-509)
T4 sequence: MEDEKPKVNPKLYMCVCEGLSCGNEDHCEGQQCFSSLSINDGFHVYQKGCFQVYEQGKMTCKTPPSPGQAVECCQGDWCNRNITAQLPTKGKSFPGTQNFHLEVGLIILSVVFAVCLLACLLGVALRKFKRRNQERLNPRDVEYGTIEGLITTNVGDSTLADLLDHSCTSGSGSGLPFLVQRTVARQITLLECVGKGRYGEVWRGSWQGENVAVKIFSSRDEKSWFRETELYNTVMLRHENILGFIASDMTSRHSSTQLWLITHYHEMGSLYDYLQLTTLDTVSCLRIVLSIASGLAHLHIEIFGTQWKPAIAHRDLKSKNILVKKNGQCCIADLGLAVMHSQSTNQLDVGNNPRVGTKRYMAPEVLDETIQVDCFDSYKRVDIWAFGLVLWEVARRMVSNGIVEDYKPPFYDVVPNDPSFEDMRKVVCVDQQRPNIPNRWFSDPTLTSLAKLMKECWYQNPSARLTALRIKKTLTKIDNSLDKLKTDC
Method: as §1, §2

Measured: binding result

B1: rat anti-ALK2 monoclonal antibody A2-27D (antibody, V domains shown)
VH: EVQLVESGGGLVQPGRSLKLSCLASGSTFSNYGMKWIRQAPGKGLEWVASISRSSTYIYYADTVKGRFTISRDNARNTLYLQMTSLRSEDTALYYCAAAISTPFYWYFDFWGPGTVVTVSS
VL: EIVLTQSPTTMAASPGEKVTLNCLASSSVSYMTWYQQKSGASPKLWIYGTSNLASGVPNRFSGSGSGTSYSLAISSMEAEDVATYYCLHLTSYPPYTFGAGTKLELKR
notes: Rat monoclonal IgG from a hybridoma; also called 27D11
binds: all assays above

B2: rat anti-ALK2 monoclonal antibody A2-25C (antibody, V domains shown)
VH: EVQLVESGGGLVQPGGSLKLSCAASGFTFSYYAMSWVCQAPTKGLEWVASISRGGDNTYYRDTVKGRFTTSRDNAKNTLYLQMDSLRSEDTATYYCARLNYNNYFDYWGQGVMVTVSS
VL: DIQMTQSPASLSASLEEIVTITCQASQDIGNWLSWYQQKPGKSPQLLIYGATSLADGVPSRFSGSRSGTQYSLKISRLRVEDIGIYYCLQAYSAPFTFGSGTKLEIKR
notes: Rat monoclonal IgG from a hybridoma; also called 25C11
binds: all assays above
